Assay results as given in patent publication US20250313627A1.

Experiments:
[1] = biological target: human ROR1 (Receptor Tyrosine Kinase-Like Orphan Receptor 1) on the cell surface (human) (UniProt Q01973); assay: flow cytometry, LS174T cells expressing human ROR1 (low density)
[2] = biological target: human ROR1 (Receptor Tyrosine Kinase-Like Orphan Receptor 1) on the cell surface (human) (UniProt Q01973); assay: as above; remark: listed apart in the source
[3] = biological target: human ROR1 (Receptor Tyrosine Kinase-Like Orphan Receptor 1) on the cell surface (human) (UniProt Q01973); assay: flow cytometry, B16-F10 cells expressing human ROR1 (high density)
[4] = biological target: human ROR1 (Receptor Tyrosine Kinase-Like Orphan Receptor 1) on the cell surface (human) (UniProt Q01973); assay: as above; remark: listed apart in the source
[5] = biological target: human ROR1 (Receptor Tyrosine Kinase-Like Orphan Receptor 1) on the cell surface (human) (UniProt Q01973); assay: as above; remark: listed apart in the source
[6] = biological target: human ROR1 (Receptor Tyrosine Kinase-Like Orphan Receptor 1) on the cell surface (human) (UniProt Q01973); assay: as above; remark: listed apart in the source
[7] = biological target: human ROR1 (Receptor Tyrosine Kinase-Like Orphan Receptor 1) on the cell surface (human) (UniProt Q01973); assay: as above; remark: listed apart in the source
[8] = biological target: human ROR1 (Receptor Tyrosine Kinase-Like Orphan Receptor 1) on the cell surface (human) (UniProt Q01973); assay: as above; remark: listed apart in the source

Chain of human ROR1 (Receptor Tyrosine Kinase-Like Orphan Receptor 1) on the cell surface (human) (Q01973 30-937): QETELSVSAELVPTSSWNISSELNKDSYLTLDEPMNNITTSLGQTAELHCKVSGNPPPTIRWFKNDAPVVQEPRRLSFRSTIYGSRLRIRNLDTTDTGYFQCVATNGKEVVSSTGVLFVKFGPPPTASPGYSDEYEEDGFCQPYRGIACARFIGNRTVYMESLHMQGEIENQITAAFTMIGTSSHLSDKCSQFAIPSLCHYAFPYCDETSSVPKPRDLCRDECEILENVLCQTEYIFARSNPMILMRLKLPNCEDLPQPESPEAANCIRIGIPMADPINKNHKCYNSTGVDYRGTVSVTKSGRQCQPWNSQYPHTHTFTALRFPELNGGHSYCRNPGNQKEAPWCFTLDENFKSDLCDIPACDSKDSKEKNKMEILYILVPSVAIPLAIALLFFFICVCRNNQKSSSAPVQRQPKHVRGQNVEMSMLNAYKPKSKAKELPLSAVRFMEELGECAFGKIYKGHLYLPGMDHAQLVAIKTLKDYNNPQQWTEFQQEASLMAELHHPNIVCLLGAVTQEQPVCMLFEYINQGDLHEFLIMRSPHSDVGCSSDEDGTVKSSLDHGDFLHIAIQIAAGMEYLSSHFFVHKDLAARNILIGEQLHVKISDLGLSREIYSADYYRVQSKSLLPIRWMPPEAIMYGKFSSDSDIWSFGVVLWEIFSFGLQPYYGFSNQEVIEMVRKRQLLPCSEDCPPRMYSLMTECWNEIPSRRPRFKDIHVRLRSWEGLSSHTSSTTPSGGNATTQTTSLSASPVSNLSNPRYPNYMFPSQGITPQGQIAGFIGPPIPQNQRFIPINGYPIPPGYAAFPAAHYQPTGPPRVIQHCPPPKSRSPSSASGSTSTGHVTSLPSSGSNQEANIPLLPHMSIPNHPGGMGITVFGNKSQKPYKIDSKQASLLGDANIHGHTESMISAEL

B1: anti-human ROR1 (clone 2A2)-PE (antibody, from another filing, V domains shown)
VH: QVQLQQSGAELVRPGASVTLSCKASGYTFSDYEMHWVIQTPVHGLEWIGAIDPETGGTAYNQKFKGKAILTADKSSSTAYMELRSLTSEDSAVYYCTGYYDYDSFTYWGQGTLVTVSA
VL: DIVMTQSQKIMSTTVGDRVSITCKASQNVDAAVAWYQQKPGQSPKLLIYSASNRYTGVPDRFTGSGSGTDFTLTISNMQSEDLADYFCQQYDIYPYTFGGGTKLEIK
B1 was tested, and the MFI [1] was 7960, the MFI [2] was 36200 and the MFI [3] was 35200. The MFI [4] was 19900, the MFI [5] was 38700 and the MFI [6] was 21600. It also gave an MFI [7] of 27100 and an MFI [8] of 416000.
